The values that follow come from patent publication US20040229274A1 (Johns Hopkins, published 2004).

Assay [1] addresses mGluR4 transiently expressed in HEK-293 cells (UniProt P31423 33-912). The experiment in a line: bead-linked GST-Homer pull-down from extracts of transfected HEK-293 cells, immunoblot. An excerpt: (§1) To measure the binding interaction, mGluR5 and mGluR1a were expressed in HEK-293 cells. Cell extracts were mixed with bead-linked GST-Homer and were then eluted with SDS loading buffer. When the C-terminal 4 amino acids of mGluR5 were deleted, binding of the mGluR5 to Homer was reduced by greater than 70% (FIG. 10D, lanes 3 and 4). […] Neither mGluR2 nor mGluR4 bind Homer protein (FIGS. 10B, 10C).
(§2) For experiments examining specificity of Homer binding to metabotropic glutamate receptors, HEK-293 cells were transiently transfected with mGluR1a, mGluR2, mGluR4 or mGluR5 expression constructs, scraped into PBS+1% Triton X100, sonicated 2×10 seconds, centrifuged at 15,000 g for 10 minutes at 4° C., and pre-cleared. Lysate from half of a 10 cm plate was incubated with 50 μl of beads linked to 250 ng of protein and washed as above. Samples were analyzed by western blot analysis using the appropriate polyclonal mGluR antibody. Deletion constructs of Homer were prepared by PCR and cloned as fusion constructs with GST in pGEX (Pharmacia, Piscataway, N.J.).
In general terms: Immunoblotting shows a protein as a band on a membrane.

For assay [2], the target named is mGluR2 transiently expressed in HEK-293 cells (UniProt P31421 19-872). Described as above.
Chain of mGluR2 transiently expressed in HEK-293 cells (P31421 19-872 limits assumed): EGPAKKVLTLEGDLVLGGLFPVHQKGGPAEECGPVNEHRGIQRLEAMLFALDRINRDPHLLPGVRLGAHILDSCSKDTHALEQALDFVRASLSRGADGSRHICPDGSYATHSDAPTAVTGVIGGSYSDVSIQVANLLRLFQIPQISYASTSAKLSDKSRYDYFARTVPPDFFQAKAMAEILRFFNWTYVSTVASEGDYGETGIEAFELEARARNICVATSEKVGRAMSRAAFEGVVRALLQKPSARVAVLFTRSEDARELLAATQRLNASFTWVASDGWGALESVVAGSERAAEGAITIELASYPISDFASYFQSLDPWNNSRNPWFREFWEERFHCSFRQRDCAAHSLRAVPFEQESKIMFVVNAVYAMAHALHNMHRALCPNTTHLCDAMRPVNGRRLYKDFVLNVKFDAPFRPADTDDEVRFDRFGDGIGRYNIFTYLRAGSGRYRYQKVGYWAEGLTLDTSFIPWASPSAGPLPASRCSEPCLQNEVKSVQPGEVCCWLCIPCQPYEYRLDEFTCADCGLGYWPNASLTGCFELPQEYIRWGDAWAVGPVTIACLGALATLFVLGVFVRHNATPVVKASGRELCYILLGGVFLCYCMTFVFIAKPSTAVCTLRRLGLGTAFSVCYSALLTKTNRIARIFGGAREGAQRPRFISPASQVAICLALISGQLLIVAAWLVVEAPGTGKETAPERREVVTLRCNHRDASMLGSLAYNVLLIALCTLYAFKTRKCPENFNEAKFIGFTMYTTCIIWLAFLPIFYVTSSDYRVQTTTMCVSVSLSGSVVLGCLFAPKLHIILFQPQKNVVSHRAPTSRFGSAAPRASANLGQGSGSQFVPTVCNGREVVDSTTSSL
Source text: as §1, §2

The target of assay [3] is truncated mGluR5 (C-terminal 4 amino acids deleted) expressed in HEK-293 cells (UniProt P31424). Briefly: bead-linked GST-Homer pull-down from HEK-293 cell extracts, immunoblot.
Assay [4] has as its target T1, C-terminal 195 amino acids of mGluR5 encoded by an interacting cDNA of the rat hippocampus library in pPC86 (rat, UniProt P31424 1009-1203).
T1 construct: not shown: GAL4 domain supplied by vector pPC86
The experiment in a line: yeast GAL4 two-hybrid screen, selection without leucine, tryptophan and histidine, confirmed by β-galactosidase assay. Here is the method: In experiments carried out in support of the present invention and described in Example 5 herein, the yeast GAL4 two-hybrid system was used to identify binding partners of the rat Homer protein in a rat brain cDNA library (Chevray and Nathans, 1992). A PCR product of the full-length Homer ORF with flanking SmaI sites was subcloned into the yeast expression vector pPC97. A random primed cDNA library was prepared from seizure stimulated adult rat hippocampus and cloned into the yeast expression vector pPC86. The library contains 2×10⁶ independent cDNAs. A total of 1.5×10⁶ clones were screened. Interacting proteins were identified by selection on plates lacking leucine, tryptophan, and histidine, restreaked and confirmed using a β-galactosidase assay.
The full-length Homer ORF with flanking SmaI sites was subdloned into the yeast expression vector pPC97. A random primed cDNA library was prepared from seizure stimulated adult rat hippocampus and cloned into the yeast expression vector pPC86. The library contains 6×10⁶ independent cDNAs and a total of 1.5×10⁶ were screened. Interacting proteins were identified by colony selection on plates lacking leucine, tryptophan, and histidine and confirmed using a β-galactosidase assay (Ausubel, et al., 1992). […]

The target in assay [5] is T2, myc-tagged mGluR5 C-terminus (195 aa) expressed in HEK-293 cells (UniProt P31424 1009-1203).
T2 construct: it is put first here; not shown: myc tag
T2 sequence (P31424 1009-1203 limits assumed): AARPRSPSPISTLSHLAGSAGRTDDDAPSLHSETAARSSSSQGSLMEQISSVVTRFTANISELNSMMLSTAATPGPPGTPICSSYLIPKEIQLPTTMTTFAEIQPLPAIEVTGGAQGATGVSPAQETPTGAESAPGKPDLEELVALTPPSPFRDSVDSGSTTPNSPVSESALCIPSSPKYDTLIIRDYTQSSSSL
The experiment in a line: GST-Homer deletion constructs, pull-down of myc-tagged mGluR5 C-terminus, immunoblot for myc.

T1 sequence (P31424 1009-1203): as the sequence (P31424 1009-1203 limits assumed) above
Chain of mGluR4 transiently expressed in HEK-293 cells (P31423 33-912 limits assumed): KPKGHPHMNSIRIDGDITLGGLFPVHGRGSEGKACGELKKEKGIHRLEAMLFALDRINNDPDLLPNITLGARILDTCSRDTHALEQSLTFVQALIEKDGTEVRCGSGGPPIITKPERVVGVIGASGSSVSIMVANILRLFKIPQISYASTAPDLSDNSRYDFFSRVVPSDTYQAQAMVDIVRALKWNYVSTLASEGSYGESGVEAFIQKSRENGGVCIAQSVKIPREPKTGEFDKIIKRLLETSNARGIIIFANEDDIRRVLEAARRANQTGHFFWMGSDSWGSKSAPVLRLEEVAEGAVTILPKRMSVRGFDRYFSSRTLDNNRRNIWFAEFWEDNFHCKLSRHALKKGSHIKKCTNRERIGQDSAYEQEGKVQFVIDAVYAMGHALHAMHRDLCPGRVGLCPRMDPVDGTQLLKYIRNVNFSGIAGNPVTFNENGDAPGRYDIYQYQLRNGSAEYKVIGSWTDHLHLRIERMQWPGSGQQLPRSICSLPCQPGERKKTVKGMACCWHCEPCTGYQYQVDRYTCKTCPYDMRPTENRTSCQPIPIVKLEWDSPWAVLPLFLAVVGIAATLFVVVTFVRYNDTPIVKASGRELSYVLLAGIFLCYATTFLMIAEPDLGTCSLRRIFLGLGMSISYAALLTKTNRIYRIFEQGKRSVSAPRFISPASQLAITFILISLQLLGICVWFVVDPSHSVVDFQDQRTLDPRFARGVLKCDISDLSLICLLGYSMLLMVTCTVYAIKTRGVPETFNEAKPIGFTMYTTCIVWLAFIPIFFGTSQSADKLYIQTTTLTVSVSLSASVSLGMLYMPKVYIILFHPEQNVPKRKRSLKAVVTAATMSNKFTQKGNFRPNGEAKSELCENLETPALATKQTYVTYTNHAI

B1: GST-Homer fusion protein (full length rat Homer, 1-186, fused to glutathione-S-transferase) (other)
chain: MGEQPIFSTRAHVFQIDPNTKKNWVPTSKHAVTVSYFYDSTRNVYRIISLDGSKAIINSTITPNMTFTKTSQKFGQWADSRANTVYGLGFSSEHHLSKFAEKFQEFKEAARLAKEKSQEKMELTSTPSQESAGGDLQSPLTPESINGTDDERTPDVTQNSEPRAEPAQNALPFSHRYTFNSAIMIK
notes: Bacterially expressed from pGEX; GST is put first as usual for pGEX; also called Homer GST fusion protein; Homer-GST fusion protein; not shown: glutathione-S-transferase (GST) encoded by the bacterial vector pGEX (Pharmacia)
As to B1, the binding result in assay [1] and in assay [2] was “no binding” each time. In assay [3], this molecule had a reduction of binding against full length mGluR5 of over 70%.

B2: full-length Homer ORF in yeast expression vector pPC97 (GAL4 two-hybrid fusion) (other)
chain: MGEQPIFSTRAHVFQIDPNTKKNWVPTSKHAVTVSYFYDSTRNVYRIISLDGSKAIINSTITPNMTFTKTSQKFGQWADSRANTVYGLGFSSEHHLSKFAEKFQEFKEAARLAKEKSQEKMELTSTPSQESAGGDLQSPLTPESINGTDDERTPDVTQNSEPRAEPAQNALPFSHRYTFNSAIMIK
notes: also called Homer (two-hybrid bait); not shown: GAL4 domain supplied by vector pPC97
Regarding B2, the binding result in assay [4] is “binds”.

B3: GST-Homer deletion construct, Homer fragment 109-186 (N-terminal 108 amino acids deleted) (other, not shown: a dimerising Fc or GST; large carriers; small tags and cut ends)
chain: AARLAKEKSQEKMELTSTPSQESAGGDLQSPLTPESINGTDDERTPDVTQNSEPRAEPAQNALPFSHRYTFNSAIMIK
notes: GST put first as usual for pGEX
In the case of B3, the binding result in assay [5] is “no binding”.
